The test addresses GST fusion of the SET domain of Trithorax, GST-TrxSET (Drosophila). Kind of test: pull-down; 1 μg GST-E(z)SET or GST-TrxSET immobilised on GSH-agarose, mixed 2 h at 4 °C with pre-cleared reticulocyte lysate holding 35S-Asx or its deletion fragments; washes with 0.6 M NaCl, pH 7.9; SDS-PAGE and autoradiography, densitometry relative to GST.

Here are results for one substance from PMC5605996.

GST fusion of the SET domain of Trithorax, GST-TrxSET (Drosophila), sequence (P20659 3583-3709): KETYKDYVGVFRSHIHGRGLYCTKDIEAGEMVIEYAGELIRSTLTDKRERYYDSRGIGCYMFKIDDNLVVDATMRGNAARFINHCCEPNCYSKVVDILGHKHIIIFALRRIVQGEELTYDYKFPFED

Substance “full-length Additional sex combs (Asx), 35S-methionine-labelled, in vitro translated, A(1-1669) (from UniProt Q9V727 1-1669) (natural protein)” returned a fold weaker than the Asx-E(z)(SET) interaction of 5 fold.
